Square brackets hold non-standard residues; d marks the D form. Ends that are not written are not given here.
Legend:
[1] = biological target: ProLink tagged human CXCR4 (C2C12 CXCR4 β-Arrestin cell line) (human, UniProt P61073 1-352); assay: cell-based or functional assay
[2] = biological target: T1, CXCR4 on cultured U937 and Jurkat cells (human, UniProt P61073 1-352); assay: cell-based or functional assay
[3] = biological target: T1, CXCR4 on cultured U937 and Jurkat cells; assay: cell-based or functional assay; remark: listed apart in the source
[4] = biological target: T2, SNAP tagged-CXC4 receptor labeled with terbium (Tag-lite CXCR4 cells, HEK293) (UniProt P61073 1-352, SNAP tag labeled with terbium fluorescent dye); assay: HTRF competition on Tag-lite CXCR4 HEK293 cells; competitor labelled CXCL12
T2 construct: whole, on cells; Bought frozen cells (PerkinElmer-CisBio), HEK293 transiently expressing the receptor; also called terbium labeled CXCR receptor
Experimental: Peptides were initially prepared as 1 mM stock in H₂O and tested at a final concentration of 400 nM. Following the manufacture's protocol, a frozen aliquot of Tag-lite CXCR4 cells was thawed and immediately seeded onto 384-well plates in TLB. Immediately following the addition of cells, 400 nM peptide (final concentration) in TLB was added to the appropriate well. […] The plates were covered in aluminum foil and left at room temperature for 3 hours. Following the 3 hour incubation period, the plates were removed from the incubator and fluorescence measured using a Cytation 1 plate reader using a HTRF filter cube ([…]; BioTek; Winooski, Vt.).

[5] = biological target: T2, SNAP tagged-CXC4 receptor labeled with …; assay: as above; remark: listed apart in the source
Experimental: Peptides were initially prepared as 1 mM stock in H₂O. […] Following the manufacture's protocol, a frozen aliquot of Tag-lite CXCR4 cells was thawed and immediately seeded onto 384-well plates in TLB. […] The plates were covered in aluminum foil and left at room temperature for 3 hours. Following the 3 hour incubation period, the plates were removed from the incubator and fluorescence measured using a Cytation 1 plate reader using a HTRF filter cube ([…]; BioTek; Winooski, Vt.).

T2 sequence (P61073 whole entry): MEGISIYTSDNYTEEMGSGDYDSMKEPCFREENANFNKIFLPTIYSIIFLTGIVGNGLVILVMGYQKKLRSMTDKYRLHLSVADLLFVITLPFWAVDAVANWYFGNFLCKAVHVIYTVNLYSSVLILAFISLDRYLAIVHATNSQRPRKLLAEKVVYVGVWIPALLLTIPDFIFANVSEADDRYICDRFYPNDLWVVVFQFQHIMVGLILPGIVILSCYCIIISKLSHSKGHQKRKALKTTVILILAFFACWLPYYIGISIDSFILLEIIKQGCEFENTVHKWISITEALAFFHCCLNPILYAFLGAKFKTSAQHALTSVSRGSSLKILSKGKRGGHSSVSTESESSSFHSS
Chain of ProLink tagged human CXCR4 (C2C12 CXCR4 β-Arrestin cell line) (P61073 whole entry): as above
T1 sequence (P61073 whole entry): as above

| Binder | IC50 for Inhibition of CXCR4 Activation (β-Arrestin recruitment) [1] [nM] | Percent Inhibition of CXCR4/CXCL12 Induced p-MEK (100 nM Test Article) [2] [%] | Percent Inhibition of CXCR4/CXCL12 Induced p-MEK (1 µM Test Article) [2] [%] | Percent Inhibition of CXCL12 Mediated Migration (1.1 µM Test Article; Jurkat cells) [3] [%] | Percent Inhibition of CXCR4/CXCL12 Binding (400 nM peptide) [4] [%] | IC50 [5] [nM] |
| --- | --- | --- | --- | --- | --- | --- |
| LERYHHSVRSSLRGYTK [SEQ ID NO: 80] | 4 | 52 | 96 | 71 | 88 | 6 |
| LERYHHSVRSSLRPFTK [SEQ ID NO: 60] | 4 | 34 | 82 | 33 | 60 | 17 |
| LRRYHHSVRSSLRPFTK [SEQ ID NO: 59] | 3 | 43 | 93 |  | -3 | 382 |
| LERYHHSVRSSLRPYT [SEQ ID NO: 18] | 24 | 45 | 78 | 66 | 57 | 18 |
| LERFHHSVRSSLRPYTK [SEQ ID NO: 54] | 3 | 46 | 92 | 54 | 79 | 8 |
| LRRFHHSVRSSLRPYTK [SEQ ID NO: 53] | 3 | 62 | 98 | 59 | 5 | 108 |
| LERYHHS[dA]RSSLRPYTK-NH2 (N-terminus assumed; SMILES CC(C)C[C@H](NC(=O)[C@H](CO)NC(=O)[C@H](CO)NC(=O)[C@H](CCCNC(=N)N)NC(=O)[C@@H](C)NC(=O)[C@H](CO)NC(=O)[C@H](Cc1c[nH]cn1)NC(=O)[C@H](Cc1c[nH]cn1)NC(=O)[C@H](Cc1ccc(O)cc1)NC(=O)[C@H](CCCNC(=N)N)NC(=O)[C@H](CCC(=O)O)NC(=O)[C@@H](N)CC(C)C)C(=O)N[C@@H](CCCNC(=N)N)C(=O)N1CCC[C@H]1C(=O)N[C@@H](Cc1ccc(O)cc1)C(=O)N[C@H](C(=O)N[C@@H](CCCCN)C(N)=O)[C@@H](C)O) [SEQ ID NO: 57] | 33 | 10 | 72 | 30 |  |  |

Source: patent publication US20220395553A1 (COHBAR, published 2022)
